# Measurements: patent US20030096753A1 (published 2003)
# Columns and labels:
# [1] = molecular target: T1, Purified recombinant human NGF (human, UniProt P01138 122-241, limits assumed, radioiodinated with 125I (lactoperoxidase method) where used as tracer); assay: competitive binding assay, 125I-NGF on A875 cells; reference TrkAIg1,2
# T1 construct: also called unlabeled human NGF
# Procedure: (§1) The binding affinity of ¹²⁵I-NGF to the Ig-like domains of TrkA was determined by a competitive binding assay using the melanoma cell line A875 American Tissue Culture Collection (ATCC) which expresses the NGF receptor p75^NGFR.
# (§2) Purified recombinant human NGF was radioiodinated with I¹²⁵ using a lactoperoxidase method and equilibrium binding with [¹²⁵I]-NGF was carried out (Treanor et al., 1991; Neuroscience Letters 121 p73-76). Briefly A875 cells (10⁶ per ml) were incubated with [¹²⁵I]-NGF (0.14 nM) and serial dilutions of unlabeled human NGF (concentration range: 10⁻⁶ M to 1×10⁻¹¹ M), TrkAIg1,2 (concentration range: 4×10⁻⁶ M to 1×10⁻¹¹ M) or TrkAIg2 (concentration range 5×10⁻⁶ M to 1×10 ⁻¹¹ M). Tubes were shaken vigorously at room temperature for 1 hr. 100 μl aliquots were then layered over 200 μl sucrose (0.15 M in binding buffer) in Beckman tubes. After centrifugation (15 seconds at 20,000 g) bound and free [¹²⁵I]-NGF were separated by freezing the tubes in liquid nitrogen and determining the bound [¹²⁵I]-NGF of the cell pellet. Binding reactions were carried out in triplicate. Counts were corrected for background and specific binding was between 85-87% of total binding. The competitive binding assay (FIG. 9) allowed estimation of the binding affinity of [¹²⁵I]-NGF to the recombinant TrkAIg2 protein. […]
# [2] = molecular target: 7S NGF (complex of 2.5S (β-NGF) and γ NGF); assay: cell-based or functional assay
# [3] = molecular target: NGF (source and species not stated; used in the BiaCore study and on PC12 cells); assay: SPR (BiaCore-X), TrkAIg2 amine-coupled to the chip, NGF 40 nM to 500 nM as analyte, BiaEval 3.0 fit
# Procedure: TrkAIg2 was covalently attached to the surface of the sensor chip by coupling with amine groups on TrkAIg2 to carboxyl groups on the surface using BiaCore Amine Coupling kit and varying concentrations of NGF passed over at a constant flow rate of 20 μl/min for two minutes. Data were collected for a range of NGF concentrations of 1 μM to 1 nM. […] However, data collected for the range 40 nM to 500 nM could be successfully evaluated.
# [4] = molecular target: T1, Purified recombinant human NGF; assay: competitive binding assay, 125I-NGF on A875 cells (p75NGFR), numerical fit
# Procedure: as §1, §2
# [5] = molecular target: T1, Purified recombinant human NGF; assay: displacement binding assays of the two Poros 20HQ peaks
# T1 sequence (P01138 122-241 limits assumed): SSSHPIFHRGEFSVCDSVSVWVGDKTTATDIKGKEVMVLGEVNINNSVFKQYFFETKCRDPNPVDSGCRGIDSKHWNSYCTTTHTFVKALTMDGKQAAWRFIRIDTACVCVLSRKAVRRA
# Sequence of NGF (source and species not stated; used in the BiaCore study and on PC12 cells) (chain, as listed by the source): as the sequence (P01138 122-241 limits assumed) above
# Sequence of 7S NGF (complex of 2.5S (β-NGF) and γ NGF) (P01139 122-241, one chain of several): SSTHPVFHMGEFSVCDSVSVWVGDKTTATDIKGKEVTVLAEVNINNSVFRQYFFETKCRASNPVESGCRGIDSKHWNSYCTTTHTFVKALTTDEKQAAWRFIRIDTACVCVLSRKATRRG
binder,measurement,setting,value
"TrkAIg2 (his TrkAIg2; TrkA Ig-like sub-domain 2 together with the proline rich region, amino acids 253-375; first, active peak from Poros 20HQ) (receptor, The range 253-375 counts on the mature extracellular domain, not on the precursor; Removal of the His tag is not reported; also called TrkIg2; TrkAIg2 domain) MGSSHHHHHHSSGLVPRGSHMPASVQLHTAVEMHHWCIPFSVDGQPAPSLRWLFNGSVLNETSFIFTEFLEPAANETVRHGCLRLNQPTHVNNGNYTLLAANPFGQASASIMAAFMDNPFEFNPEDPIPDTNSTSGDPVEKKDE","fold IC50 against TrkAIg1,2",[1],3 fold
same,"NGF-induced plasma extravasation in rat skin, co-injection",[2],10 fold excess
same,Kd,[3],11.8 nM
"TrkAIg1,2 (the two immunoglobulin-like domains and proline-rich region of TrkA, amino acids 160-375) (receptor, The range counts on the mature extracellular domain; also called TrkAIg1,2 domain) MGSSHHHHHHSSGLVPRGSHMLEGVPTLKVQVPNASVDVGDDVLLRCQVEGRGLEQAGWILTELEQSATVMKSGGLPSLGLTLANVTSDLNRKNLTCWAENDVGRAEVSVQVNVSFPASVQLHTAVEMHHWCIPFSVDGQPAPSLRWLFNGSVLNETSFIFTEFLEPAANETVRHGCLRLNQPTHVNNGNYTLLAANPFGQASASIMAAFMDNPFEFNPEDPIPDTNSTSGDPVEKKDE",Kd,[4],3.3 nM
"TrkAIg1 (his TrkAIg1; TrkA Ig-like sub-domain 1, amino acids 160-252) (receptor, Two peaks eluted from Poros 20HQ; both were tested in the displacement assay; also called first immunoglobulin-like domain) MGSSHHHHHHSSGLVPRGSHMLEGVPTLKVQVPNASVDVGDDVLLRCQVEGRGLEQAGWILTELEQSATVMKSGGLPSLGLTLANVTSDLNRKNLTCWAENDVGRAEVSVQVNVSF",binding result,[5],no binding
